Results on 21 sequences are retold here after the DeepSol protein solubility set.

The nature of this data set: soluble on expression in E. coli; label from the status in PepcDB or PDB records.
Regarding “ANGLFYSLRGNFSFARNKIIENDEPKPKYEYQDARGRRIDQTFGLVALGFFKDQDDIKNSPKQTFQSTVRPGDIKYKDINGDGVVDEYDKVAIGDPRTPEIMFGFGGTVAYKNFDVSLFFTGAAKTSFFLEGATVYPFLNGEGTWNVLREVYDNRWTSETAATAKYPIVLNANSYNNYQTSTMYMRNGSYLRLKSAEIGYTFKGRLIDKMFMDNIRLFCNGQNLLTLDYIKIVDPESNNGVGNYPMQRTINFGFQINFK”, the “soluble on expression in E. coli” value is recorded as “not soluble”.

As to “ANSMLKGKVALVTGASRGIGRAIAKRLANDGALVAIHYGNRKEEAEETVYEIQSNGGSAFSIGANLESLHGVEALYSSLDNELQNRTGSTKFDILINNAGIGPGAFIEETTEQFFDRMVSVNAKAPFFIIQQALSRLRDNSRIINISSAATRISLPDFIAYSMTKGAINTMTFTLAKQLGARGITVNAILPGFVKTDMNAELLSDPMMKQYATTISAFNRLGEVEDIADTAAFLASPDSRWVTGQLIDVSGGSCL”, the “soluble on expression in E. coli” value is given as “soluble”. Take “APARPAHPLDPLSTAEIKAATNTVKSYFAGKKISFNTVTLREPARKAYIQWKEQGGPLPPRLAYYVILEAGKPGVKEGLVDLASLSVIETRALETVQPILTVEDLCSTEEVIRNDPAVIEQCVLSGIPANEMHKVYCDPWTIGYDERWGTGKRLQQALVYYRSDEDDSQYSHPLDFCPIVDTEEKKVIFIDIPNRRRKVSKHKHANFYPKHMIEKVGAMRPEAPPINVTQPEGVSFKMTGNVMEWSNFKFHIGFNYREGIVLSDVSYNDHGNVRPIFHRISLSEMIVPYGSPEFPHQRKHALDIGEYGAGYMTNPLSLGCDCKGVIHYLDAHFSDRAGDPITVKNAVCIHEEDDGLLFKHSDFRDNFATSLVTRATKLVVSQIFTAANYEYCLYWVFMQDGAIRLDIRLTGILNTYILGDDEEAGPWGTRVYPNVNAHNHQHLFSLRIDPRIDGDGNSAAACDAKSSPYPLGSPENMYGNAFYSEKTTFKTVKDSLTNYESATGRSWDIFNPNKVNPYSGKPPSYKLVSTQCPPLLAKEGSLVAKRAPWASHSVNVVPYKDNRLYPSGDHVPQWSGDGVRGMREWIGDGSENIDNTDILFFHTFGITHFPAPEDFPLMPAEPITLMLRPRHFFTENPGLDIQPSYAMTTSEAKRAV”: the “soluble on expression in E. coli” value is “soluble”.

With “APYRYLAAGAADVISNLSAVKDWKLAHRLKGEEFSSSAAAMSEYSAQEVLSQINEIKKYEESSVWLVTKNILASGTAMAIAGNSRPGSGSEHLFAHALEAAGVENMLHGEMCAMGTVISMYLHDENWQQIKEAFDNLGISIRSRDYGIEDEIVINALRTAHAIRPERYTILGESDMSYDAAVKALELTGI”, the “soluble on expression in E. coli” value is “not soluble”.

Consider “AQGQRRAPLSVVFTEPQVASVGLSLRQIEDLYADQDAANYVVGQVSFEGQGRSRVMGKNKGLLNVYADRTSGEFLGAEMFGPAAEHIGHLLAWARQQQMTVQAMLTMPFYHPVIEEGLRTALRDAQQKLAIEKHDMNEFIMTHDNAMKLVI”, for which the “soluble on expression in E. coli” value is “not soluble”.

Consider “ARGSHMEEMIRSLQQRPEPTPEEWDLIHIATEAHRSTNAQGSHWKQRRKFLPDDIGQSPIVSMPDGDKVDLEAFSEFTKIITPAITRVVDFAKKLPMFSELPCEDQIILLKGCCMEIMSLRAAVRYDPESDTLTLSGEMAVKREQLKNGGLGVVSDAIFELGKSLSAFNLDDTEVALLQAVLLMSTDRSGLLCVDKIEKSQEAYLLAFEHYVNHRKHNIPHFWPKLLMKVTDLRMIGACHASRFLHCKVECPTELFPPLFLEVFEDQEV”, for which the “soluble on expression in E. coli” value is listed as “soluble”. Take “ARKIGIIGLGNVGAAVAHGLIAQGVADDYVFIDANEAKVKADQIDFQDAMANLEAHGNIVINDWAALADADVVISTLGNIKLQQDNPTGDRFAELKFTSSMVQSVGTNLKESGFHGVLVVISNPVDVITALFQHVTGFPAHKVIGTGTLLDTARMQRAVGEAFDLDPRSVSGYNLGEHGNSQFVAWSTVRVMGQPIVTLADAGDIDLAAIEEEARKGGFTVLNGKGYTSYGVATSAIRIAKAVMADAHAELVVSNRRDDMGMYLSYPAIIGRDGVLAETTLDLTTDEQEKLLQSRDYIQQRFDEIVDTL”: the “soluble on expression in E. coli” value is “soluble”. In the case of “ARPKGIRIGYLPQVMRLQDGHTVYEEVEQAFNDIRQIEEEIRRLSDEMAGRTDYESDDYIRLIEHYTNMSETLSLMQQGNYHAAIEQTLIGLGFGREDFHRPTADFSGGWRMRIELAKLLLQRPEVLLLDEPTNHLDIESIGWLEQFIATNAGAVILVSHDRAFIDNTTTRTIEIELGHIYDYKTNYSHYVELREERLRQQMRAYENQQKMIRDTEDFIERFRYKATKSVQVQSRIKQLEKVERVEIDERDRSAFHFRFIPAQPSGSYP” it was “not soluble”. In the case of “ASGFAGHLSVGFSPVVGPVVLPESIRRFRAAYPDVLVSVIEASIDLLLPGLRNGDFDIVVGRLEEVAMPEDVRCETLYDEPVCLVAGRAHPLAGRRRISWEDAQAYPWISPQQGTPLRMRLEMELAVAGQPLPRHAVESTSVQTNVALLDRS” it was “not soluble”. As to “ASGRRAPRTGLLELRCGAGSGAGGERWQRVLLSLAEDALTVSPADGEPGPEPEPAQLNGAAEPGAAPPQLPEALLLQREVSPYFKNSAGGTSVGWDSPPASPLQRQPSSPGPQPRNLSEAKHVSLKMAYVSRRCTPTDPEPRYLEICAADGQDAVFLRAKDEASARSWAGAIQAQIGT”, the “soluble on expression in E. coli” value was “soluble”. In the case of “ASHSRKFLDVRSEEELLSCIKKETEAGKLPPNVAAGMEELYQNYRNAVIESGNPKADEIVLSNMTVALDRILLDVEDPFVFSSHHKAIREPFDYYIFGQNYIRPLIDFGNSFVGNLSLFKDIEEKLQQGHNVVLISNHQTEADPAIISLLLEKTNPYIAENTIFVAGDRVLADPLCKPFSIGRNLICVYSKKHMFDIPELTETKRKANTRSLKEMALLLRGGSQLIWIAPSGGRDRPDPSTGEWYPAPFDASSVDNMRRLIQHSDVPGHLFPLALLCHDIMPPPSQVEIEIGEKRVIAFNGAGLSVAPEISFEEIAATHKNPEEVREAYSKALFDSVAMQYNVLKTAISGKQGLGASTADVSLSQPW” it was “soluble”; in that of “ASNSQLNAMAHQIQEMFPQVPYHLVLQDLQLTRSVEITTDNILEGRIQVPF”, “soluble”; in that of “ATEPFMKGRVKLLPDILPGKNKDHEFEALVSTIQDMSLKMMELMVERPPRELILSMRRNKNPMYQINFASANISTSIAVKQELLEISKMKDRGYRLLYLLHKELQVMELKASIQMKTREEMDKQQKEYFLQQQIKTIQEELGGNINDIEVQELRTKAATMKWSSEVAETFEKELRKLERLHPQSPDYSVQMQYVQTIISLPWGVFSKDNFNLKRAQSVLDRDHFGLEKVKERIIEHLAVLKMKGDMKSPIICLYGPPGVGKTSLGKSIAESLGRKYVRISLGGLHDEAEIRGHRRTYIGAMCGRIIQSLQRAGTSNPVFVLDEIDKIDSDYKGDPSSALLEVLDPEQNNAFHDNYLDIDFDLSHVLFIATANSLSSISRPLLDRMELIDV”, “not soluble”. The value for “ATFIEQQVGGNLTEASLALRLPTLLPYNGVLFLGNSLLVRLVDALTQLPESYPVYTNRGASGIDGLLATAAGIGIGSNKPVVAVIGDTSTLYDLNSFALFKNVTQPTLIFVINNNGGAIFDMLPVDEQVKDQFYRLPHNGDFSQIAAMFDLKYAHPYTWADLNSVVKQAYSRRKATLIEIKTNPSDG” was “not soluble”; that for “ATPAPAAEMPGITIISASQTGNARRVAEALRDDLLAAKLNVKLVNAGDYKFKQIASEKLLIVVTSTQGEGEPPEEAVALHKFLFSKKAPKLENTAFAVFSLGDTSYEFFCQSGKDFDSKLAELGGERLLDRVDADVEYQAAASEWRARVVDALKSRAPVAAPSQSVA” was “soluble”; that for “AVEPKEDTITVTAAPAPQESAWGPAATIAARQSATGTKTDTPIQKVPQSISVVTAEEMALHQPKSVKEALSYTPGVSVGTRGASNTYDHLIIRGFAAEGQSQNNYLNGLKLQGNFYNDAVIDPYMLERAEIMRGPVSVLYGKSSPGGLLNMVSKRPTTEPLKEVQFKAGTDSLFQTGFDFSDSLDDDGVYSYRLTGLARSANAQQKGSEEQRYAIAPAFTWRPDDKTNFTFLSYFQNEPETGYYGWLPKEGTVEPLPNGKRLPTDFNEGAKNNTYSRNEKMVGYSFDHEFNDTFTVRQNLRFAENKTSQNSVYGYGVCSDPANAYSKQCAALAPADKGHYLARKYVVDDEKLQNFSVDTQLQSKFATGDIDHTLLTGVDFMRMRNDINAWFGYDDSVPLLNLYNPSSHHHHHHGSSVNTDFDFNAKDPANSGPYRILNKQKQTGVYVQDQAQWDKVLVTLGGRYDWADQESLNRVAGTTDKRDDKQFTWRGGVNYLFDNGVTPYFSYSESFEPSSQVGKDGNIFAPSKGKQYEVGVKYVPEDRPIVVTGAVYNLTKTNNLMADPEGSFFSVEGGEIRARGVEIEAKAALSASVNVVGSYTYTDAEYTTDTTYKGNTPAQVPKHMASLWADYTFFDGPLSGLTLGTGGRYTGSSYGDPANSFKVGSYTVVDALVRYDLARVGMAGSNVALHVNNLFDREYVASCFNTYGCFWGAERQVVATATFRF” was “soluble”.

Consider “AVMHYTSDTEFCVSCHSMEIPYKEYQGSVHFSNAKGIRAECSDCHIPQEPMDYLITKIRASKDIYHEFVTGKIDTPEKYEAHRKDMAETVWAQFRENDSATCRSCHDFDAMEEFEQSRDAAKMHEYAKANDQTCIDCHKGVAHFAPEAELDSKAFETLMSFTTKTAANAKVVYPVTTINMGEMGTINPTTKLEVMSAEGDNRTVKLNAFQMKGAEQVLYMGEGQRAIVATLTEQGQQALEAGEFEADVYGNEWRAVSLTGAIDSPVVDTLDPVWSYAEELDNVYCATCHAKIPSNHFTV”, for which the “soluble on expression in E. coli” value is on record as “not soluble”. The value for “AWQARGLGTARLQLVEFSAFVEPPDAVDSYQRHLFVHISQHCPSPGAPPLESVDVRQIYDKFPEKKGGLRELYDRGPPHAFFLVKFWADLNWGPSGEEAGAGGSISSGGFYGVSSQYESLEHMTLTCSSKVCSFGKQVVEKVETERAQLEDGRFVYRLLRSPMCEYLVNFLHKLRQLPERYMMNSVLENFTILQVVTNRDTQELLLCTAYVFEVSTSERGAQHHIYRLVRD” was “soluble”; that for “CDKSANPKQPTQGMSVVTSFYPMYAMTKEVSGDLNDVRMIQSGAGIHSFEPSVNDVAAIYDADLFVYHSHTLEAWARDLDPNLKKSKVNVFEASKPLTLDRVKGLEDMEVTQGIDPATLYDPHTWTDPVLAGEEAVNIAKELGHLDPKHKDSYTKKAKAFKKEAEQLTEEYTQKFKKVRSKTFVTQHTAFSYLAKRFGLKQLGISGISPEQEPSPRQLKEIQDFVKEYNVKTIFAEDNVNPKIAHAIAKSTGAKVKTLSPLEAAPSGNKTYLENLRANLEVLYQQLK” was “soluble”. Take “CHETTTVALPESIGVGKGTTTLEDFENADAIFIIGQNPGSNSPRMMSELHAAAKRGASIISFNPLREKALVRFASPQDPRDMLSLHGVEISSQYHQVRIGGDMIALQGVCKAVIEADDVARREHLPRVLDVAFIEEHTHGFEQYADYCRQLPWDLIESHSGLTRQAIEDVAAVYRRSERVICCWGMGVTQHKRGGDAVQQIINLLLLRGNIGKLGAGACPVRGHSNVQGDRTMGIYEKAGEPFLASMSKVFGFEA”: the “soluble on expression in E. coli” value was “not soluble”. The value for “CKYEGDAQKRLAIRPFPAEFVETVTLRDGQPILLRPILPEDEPLHAQFINSVSKEDLYKRFFSEVGEFNHEALANFTQIDYDREMAFVAVAFDKSGPSIIGVARALITPDNSDAEFAILVRSDLKGKGLGKILMEKIISYCKIKGTKQMSGMTMPTNRGMLMLAQRLGFEVDVQFADGTADMVLPLN” was “not soluble”.
